Experimental data taken from the supplement of paper PMC9732359.
± gives the uncertainty stated by the source.

test: protein stability index of a GFP-peptide fusion (yeast GPS) (PSI 1-4); higher = more stable; sorted into four equal gates, so the index is relative within each strain; settings: doa10∆
Outline: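 The protein stability index of a peptide was calculated by multiplying its read frequency in each gate by that gate's number and adding the products. The peptides were tiled 17-residue stretches of yeast proteins, fused downstream of GFP on a Cherry-expressing plasmid and carried in yeast as a pooled library. Mid-log cultures in leucine-free medium were sorted into four equal gates by GFP/Cherry ratio, and each gate's plasmids were PCR-amplified and Illumina-sequenced.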

In order of rising protein stability index:
1. PSFTFGGSTTNNTTTTS [YOR098C/NUP1]  3.04 ± 0.099
2. PSHEKLKESYSQKHNGR [CDC53]  3.23 ± 0.13

same assay, conditions: pdr5∆

In order of falling protein stability index:
1. PRTLIGHRATVTDIAII [RPN14]  3.54 ± 0.2
2. PEWMILTCLPVPPPPVR [RPO21]  3.52 ± 0.17
3. NVFNDTPRGNHWMGSSV [YMR129W/POM152]  3.46 ± 0.099
4. PAKVAEEGINKFKKEKF [SRP54]  3.44 ± 0.059
5. NVVEADLKRFVDESLLS [QCR2]  3.43 ± 0.1
6. PASKHDKEVVYFDEWTI [RPC34]  3.43 ± 0.065
7. PRDVIKGKDFEITAKEV [FAS1]  3.41 ± 0.12
8. PRMASVFENYVKKTGEN [CDC53]  3.4 ± 0.087
9. PGGILRAQHVKKLATRP [RPL34A]  3.39 ± 0.21
10. PDSNHLSSETGIKLALD [SRB4]  3.35 ± 0.073
11. PLFIVEDDESLGHKELK [RPB2]  3.34 ± 0.15
12. PGSVEEVDKSKLITTYI [YDL116W/NUP84]  3.33 ± 0.26
13. PALESSPVTGDNSPSED [SNF2]  3.29 ± 0.066
14. PRRDGERKRKSVRGAIV [RPS6A]  3.29 ± 0.075
15. PFSLTYVRTEETDGKHG [YMR129W/POM152]  3.28 ± 0.096
16. NVSENQPWQMDTNNEAD [SNF12]  3.26 ± 0.064
17. PDDMVEINSVGNPGLPQ [ITC1]  3.26 ± 0.04
18. PNSERSGTPTLKKNIEP [YOR098C/NUP1]  3.26 ± 0.097
19. PDDDKIVPLTEGDIQVL [RPT1]  3.22 ± 0.1
20. PDEAIEKVFNAYPAARE [FAS1]  3.22 ± 0.1
21. PADRPQGRRNSRNFSTR [SIR4]  3.21 ± 0.074
22. PELNVSLNLTDDVISNA [MCD1]  3.21 ± 0.042
23. NVSDEQLSNWQKIRNSE [ITC1]  3.2 ± 0.095
24. PAKIVNFEKPKNSSQLL [RPN5]  3.2 ± 0.068
25. PKMQWSLQDNSAAINNE [RPN4]  3.2 ± 0.053
26. PQQPMVKTKTIELIDYD [RET1]  3.18 ± 0.2
27. PFNQGSKQDVEALIEFI [FAS2]  3.15 ± 0.076
28. PKSTLDNWRREFLKWTP [ISW2]  3.15 ± 0.15
29. NVRVGQAVETVGQAGRP [RPN1]  3.14 ± 0.092
30. PKKHLSETADETLENNI [RPN11]  3.13 ± 0.098
31. PAKPALSFGTATSDNKT [YJL041W/NSP1]  3.12 ± 0.072
32. PLDSKDENFASVSPAGP [SNF2]  3.12 ± 0.092
33. PPLLVYKWTQGINNLSE [PRP8]  3.11 ± 0.073
34. PQIVVPDAQNELPKFIL [DIS3]  3.09 ± 0.06
35. PHATATEKEPVPAVVDD [SNF6]  3.08 ± 0.068
36. PSEDVAAPKKTRKAVRP [RPL6B]  3.08 ± 0.1
37. PHNSKSLGFLQQSNKLH [RPN3]  3.07 ± 0.072
38. PNSNKTHTEQNNPPKPQ [SNF2]  3.07 ± 0.083
39. PQALRVLRLKPGRKYTT [RPL16A]  3.05 ± 0.046
40. PATTSQMAKDVTTFLNW [CYT1]  3.02 ± 0.13
41. NYGIVELDPECQLQNSD [RRP43]  3.01 ± 0.062
42. PSDMVIPDHLAELIPEL [SNF12]  3 ± 0.069
43. PQDLTFNAGSNPPSYQS [RPB7]  2.99 ± 0.11
44. PPPPPPPGYEIEELDNP [PRP8]  2.98 ± 0.04
45. PLKLSGEGPFTVKFKHM [YMR129W/POM152]  2.93 ± 0.064
46. NVNLDDYPDDSGWTPFH [NAS6]  2.91 ± 0.069
47. NVRSSVLQKVIEWAEHH [SKP1]  2.91 ± 0.11
48. PNSERETDHANTENNDP [IRR1]  2.87 ± 0.052
49. PPGLDALVKPETQFKLS [CDC53]  2.84 ± 0.055
50. PQLISDKFSPEDGLGPL [ARP7]  2.83 ± 0.067
51. PCLRKYEEFRDVAIENN [RRP43]  2.82 ± 0.065
52. NVLKAPFIKSESKPFSS [SIR4]  2.81 ± 0.088
53. NVTTILDEIFSGCDSTK [ECM29]  2.8 ± 0.087
54. PGRKYTTLGKLSTSVGW [RPL16A]  2.78 ± 0.092
55. PAAANLDALVDCENFFN [YJL039C/NUP192]  2.77 ± 0.08
56. PKVPVSAAATPSLNKTI [GAL11]  2.77 ± 0.033
57. PLHSGKTSLMDLLVIDS [SNU114]  2.75 ± 0.085
58. PIKNRTSKSFSKLLYDD [SIN4]  2.73 ± 0.045
59. PQWKRHLEEYGYLIQVL [YCS4]  2.73 ± 0.057
60. PEDPYFNTLVRIMSTRC [DIS3]  2.72 ± 0.072
61. PANVLLVQSLNDMVLEL [NNF1]  2.68 ± 0.17
62. NWRKQKGIDSVVRRRFR [RPL32]  2.66 ± 0.17
63. PSFTDEQWITIESQMRD [PRP8]  2.66 ± 0.064
64. PKCHSRENVFFQSQQRR [RPB9]  2.65 ± 0.081
65. PIPFEFQAVIQKSINHP [SNF2]  2.61 ± 0.081
66. PIPVQGEIEIKPNEEEE [RPN13]  2.59 ± 0.067
67. PNIFPNLTYYNEKLECI [ITC1]  2.58 ± 0.067
68. PRFLNKQERSKQERLKE [PRP28]  2.53 ± 0.13
69. PNMSICIFGDAFDVDRA [RPL1A]  2.52 ± 0.072
70. PLRGALATYGLTIDDLG [FAS2]  2.51 ± 0.1
71. PIKADKDYSQILKEEFP [RPN5]  2.46 ± 0.079
72. PLDEIPVDVDFNLDLDD [REC8]  2.43 ± 0.066
73. PEVSMIRDIREKELKIF [RPB2]  2.41 ± 0.084
74. PLIWQLLQSSIINKLIH [POP3]  2.38 ± 0.062
75. PKKALKVKAGVRSANED [RRP43]  2.35 ± 0.088
76. NVGTNTYRLGEWSKISV [POP1]  2.34 ± 0.12
77. PDISRAVINIRDDGKRE [RPO31]  2.29 ± 0.07
78. PPPYVKFFTQSNLEKLP [MED7]  2.29 ± 0.04
79. PPTTSNLIIFLYKFNGW [YML103C/NUP188]  2.26 ± 0.045
80. PKVKEIKTVVLVPQLGH [PRP8]  2.25 ± 0.08
81. PLPLDLNVQVWHIEETG [ITC1]  2.17 ± 0.059
82. PGEFVTAIAHSIREQVH [SNF5]  2.13 ± 0.047
83. PLITRHCYPRQLCQITC [RRP46]  2.02 ± 0.049
84. PRLSHLSLTAVPSFLRP [GRR1]  1.93 ± 0.062
85. NYQYKIQELRKLLKSLL [MED7]  1.88 ± 0.095
86. PLDRLENVLAIGIAGAH [SKI6]  1.78 ± 0.092
87. PFKRKMLLVDIIPSRMG [REC8]  1.77 ± 0.072
88. NVMLNIYPRTVIDIEIH [SKI6]  1.74 ± 0.046
89. PRLGSIDRNLKCQTCQE [RPO21]  1.7 ± 0.056
90. PLNDGFVDLVEHFLKLN [YML103C/NUP188]  1.63 ± 0.12
91. PDKLLGVILMFAAILVL [COB]  1.62 ± 0.11
92. PKNKLVPTLEAKRDYII [FAS1]  1.59 ± 0.1
93. PLVLLQQIPLLCYMAPM [POP3]  1.59 ± 0.061
94. PDVLLSRVINVVRAASS [RRP6]  1.57 ± 0.066
95. PNCPRPNMSICIFGDAF [RPL1A]  1.55 ± 0.06
96. PIPSKPTLFDLAFNYIT [SRP68]  1.54 ± 0.046
97. PEGYKAKSISTSAKEPS [RPO31]  1.51 ± 0.077
98. NVTIAQGGVLPNIHQNL [HTA1]  1.48 ± 0.043
99. PKDFSPNFTGIDKLMLS [SSN2]  1.38 ± 0.15
100. PHIIAVACLFITISIHG [SSN8]  1.3 ± 0.049
101. PNIADYITAKNNVVINF [PRP8]  1.26 ± 0.065
102. PKVTPQMMQQAQQKLKQ [SRP54]  1.18 ± 0.18
